From the supplement of paper PMC9112550, “Optimization of the antimicrobial peptide Bac7 by deep mutational scanning” (BMC Biology, 2022) come the findings set out here.

The data set deals with Escherichia coli TOP10. The experiment in a line: shrunken log2 fold change of peptide-encoding DNA abundance (4.5 h post-induction vs induction); higher = less antimicrobial activity (less host growth inhibition). As to conditions: time post-induction: 4.5 h; library: site-saturation at positions 5, 18, 19, 20.
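Note: peptides expressed intracellularly from a pBAD plasmid library in pooled LB shake-flask culture, induced with 0.3% L-arabinose, DNA abundance read by NGS, three biological replicates, DESeq2 with apeglm shrinkage.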

As to RRIRARPPRLPRPRPRPPWKPRP, the “shrunken log2 fold change” value was found to be 0.429.
To RRIRGRPPRLPRPRPRPQHSPRP belongs -0.0223; to RRIRMRPPRLPRPRPRPSWIPRP, 0.0389; to RRIRRRPPRLPRPRPRPKDFPRP, -0.123.
To RRIRHRPPRLPRPRPRPCPYPRP belongs -0.546.
To RRIRERPPRLPRPRPRPYSKPRP belongs -0.464; to RRIRVRPPRLPRPRPRPSMCPRP, -0.528; to RRIRPRPPRLPRPRPRPDYCPRP, -0.367.
With RRIRDRPPRLPRPRPRPEPKPRP, the “shrunken log2 fold change” value worked out at 1.4.
Consider RRIRMRPPRLPRPRPRPNVVPRP, for which the “shrunken log2 fold change” value was -0.0912.
The same measure for RRIRIRPPRLPRPRPRPYAAPRP: -0.563; for RRIRWRPPRLPRPRPRPGFHPRP: -0.0866.
To RRIRKRPPRLPRPRPRPCQVPRP belongs -0.00846; to RRIRARPPRLPRPRPRPGQKPRP, -0.0844.
To RRIRIRPPRLPRPRPRPTTIPRP belongs -0.578; to RRIRMRPPRLPRPRPRPQDSPRP, 0.051; to RRIRGRPPRLPRPRPRPCRIPRP, -0.0785.
Regarding RRIRLRPPRLPRPRPRPMQVPRP, the “shrunken log2 fold change” value was -0.0149.
The same measure for RRIRGRPPRLPRPRPRPSDHPRP: 0.0544; for RRIRRRPPRLPRPRPRPLVDPRP: 0.106.
Take RRIRHRPPRLPRPRPRPFMDPRP: the “shrunken log2 fold change” value is -0.436.
To RRIRHRPPRLPRPRPRPSTPPRP belongs -0.225; to RRIRWRPPRLPRPRPRPLQCPRP, 0.101.
The same measure for RRIRERPPRLPRPRPRPMDVPRP: -0.0821; for RRIRWRPPRLPRPRPRPDCRPRP: 0.0695.
Consider RRIRKRPPRLPRPRPRPVCFPRP, for which the “shrunken log2 fold change” value is 0.54.
Take RRIRSRPPRLPRPRPRPATAPRP: the “shrunken log2 fold change” value was 0.322.
With RRIRPRPPRLPRPRPRPLGSPRP, the “shrunken log2 fold change” value was -0.0459.
To RRIRCRPPRLPRPRPRPDYDPRP belongs 0.0933; to RRIRIRPPRLPRPRPRPGGWPRP, 0.56; to RRIRIRPPRLPRPRPRPGRHPRP, 0.0231.
The same measure for RRIRSRPPRLPRPRPRPNPAPRP: -0.0743.
Consider RRIRKRPPRLPRPRPRPFIGPRP, for which the “shrunken log2 fold change” value is -0.0147.
To RRIRWRPPRLPRPRPRPNEHPRP belongs -0.113; to RRIRSRPPRLPRPRPRPSLLPRP, -0.146.
Turning to RRIRCRPPRLPRPRPRPWNDPRP, the “shrunken log2 fold change” value was 0.00383.
Turning to RRIRMRPPRLPRPRPRPMFMPRP, the “shrunken log2 fold change” value worked out at 0.0101.
To RRIRKRPPRLPRPRPRPAMRPRP belongs 1.33.
RRIRGRPPRLPRPRPRPSHPPRP: the “shrunken log2 fold change” value came out at 0.372.
As to RRIRRRPPRLPRPRPRPAMHPRP, the “shrunken log2 fold change” value amounted to 0.422.
To RRIRKRPPRLPRPRPRPMHIPRP belongs 0.078; to RRIRCRPPRLPRPRPRPSAIPRP, -0.014; to RRIRGRPPRLPRPRPRPFPVPRP, 0.291.
In the case of RRIRGRPPRLPRPRPRPRTEPRP, the “shrunken log2 fold change” value amounted to 0.755.
The same measure for RRIRARPPRLPRPRPRPKMVPRP: 0.116; for RRIRYRPPRLPRPRPRPYCQPRP: -0.465; for RRIRERPPRLPRPRPRPITYPRP: -0.546.
In the case of RRIRLRPPRLPRPRPRPTLQPRP, the “shrunken log2 fold change” value turned out to be 0.0553.
To RRIRQRPPRLPRPRPRPWCYPRP belongs -0.466; to RRIRWRPPRLPRPRPRPIPVPRP, -0.11; to RRIRLRPPRLPRPRPRPFHTPRP, -0.00564.
In the case of RRIRKRPPRLPRPRPRPYVWPRP, the “shrunken log2 fold change” value was -0.36.
To RRIRMRPPRLPRPRPRPEYEPRP belongs 0.644; to RRIRNRPPRLPRPRPRPCVKPRP, -0.13.
As to RRIRIRPPRLPRPRPRPNTMPRP, the “shrunken log2 fold change” value was -0.264.
As to RRIRPRPPRLPRPRPRPCVAPRP, the “shrunken log2 fold change” value was determined as 0.51.
In the case of RRIRWRPPRLPRPRPRPWNSPRP, the “shrunken log2 fold change” value came to 0.0293.
On to RRIRERPPRLPRPRPRPQDKPRP, for which the “shrunken log2 fold change” value was -0.0918.
The same measure for RRIRGRPPRLPRPRPRPHATPRP: 1.35; for RRIRYRPPRLPRPRPRPFWPPRP: 0.0953.
RRIRQRPPRLPRPRPRPNHKPRP: the “shrunken log2 fold change” value is -0.493.
On to RRIRHRPPRLPRPRPRPHDNPRP, for which the “shrunken log2 fold change” value is -0.483.
For RRIRLRPPRLPRPRPRPTETPRP, the “shrunken log2 fold change” value is -0.021.
Turning to RRIRWRPPRLPRPRPRPANWPRP, the “shrunken log2 fold change” value came out at 0.273.
To RRIRERPPRLPRPRPRPIEYPRP belongs -0.207.
To RRIRGRPPRLPRPRPRPDCSPRP belongs 0.798; to RRIRVRPPRLPRPRPRPPILPRP, -0.313; to RRIRERPPRLPRPRPRPQPEPRP, -0.0263.
To RRIRARPPRLPRPRPRPVQNPRP belongs 0.814.
As for RRIRMRPPRLPRPRPRPYCTPRP, the “shrunken log2 fold change” value is -0.00702.
As to RRIRDRPPRLPRPRPRPECIPRP, the “shrunken log2 fold change” value came to 0.0163.
Take RRIRERPPRLPRPRPRPAGKPRP: the “shrunken log2 fold change” value was -0.0958.
To RRIRDRPPRLPRPRPRPAIHPRP belongs 0.00344.
Take RRIRLRPPRLPRPRPRPNCVPRP: the “shrunken log2 fold change” value is 0.138.
The same measure for RRIRDRPPRLPRPRPRPYMTPRP: -0.0206; for RRIRCRPPRLPRPRPRPLRAPRP: 1.02.
With RRIRYRPPRLPRPRPRPCMRPRP, the “shrunken log2 fold change” value is -0.091.
The same measure for RRIRRRPPRLPRPRPRPQVGPRP: 0.149.
The same measure for RRIRNRPPRLPRPRPRPRDIPRP: -0.138; for RRIRRRPPRLPRPRPRPCNQPRP: -0.0711.
The same measure for RRIRVRPPRLPRPRPRPQKPPRP: 0.116; for RRIRRRPPRLPRPRPRPSHVPRP: 0.151.
On to RRIRMRPPRLPRPRPRPWIFPRP, for which the “shrunken log2 fold change” value was 0.0735.
The same measure for RRIRDRPPRLPRPRPRPSFYPRP: -0.128; for RRIRFRPPRLPRPRPRPHPRPRP: 0.5.
The same measure for RRIRVRPPRLPRPRPRPGMHPRP: -0.00805; for RRIRERPPRLPRPRPRPAEKPRP: -0.0431.
The same measure for RRIRQRPPRLPRPRPRPWNLPRP: -0.0507.
As to RRIRVRPPRLPRPRPRPCFTPRP, the “shrunken log2 fold change” value is -0.0879.
The same measure for RRIRCRPPRLPRPRPRPHYCPRP: -0.342; for RRIRGRPPRLPRPRPRPDTAPRP: 1.
The same measure for RRIRIRPPRLPRPRPRPCYGPRP: -0.202; for RRIRSRPPRLPRPRPRPRWEPRP: 0.275; for RRIRQRPPRLPRPRPRPNDFPRP: 0.0233.
Turning to RRIRFRPPRLPRPRPRPSAVPRP, the “shrunken log2 fold change” value is -0.119.
With RRIRPRPPRLPRPRPRPDDWPRP, the “shrunken log2 fold change” value was 0.247.
For RRIRFRPPRLPRPRPRPLAGPRP, the “shrunken log2 fold change” value was -0.104.
To RRIRQRPPRLPRPRPRPGISPRP belongs 0.0461; to RRIRMRPPRLPRPRPRPQSRPRP, 0.328; to RRIRWRPPRLPRPRPRPFYWPRP, -0.151.
For RRIRQRPPRLPRPRPRPYWLPRP, the “shrunken log2 fold change” value was -0.307.
Regarding RRIRHRPPRLPRPRPRPPPRPRP, the “shrunken log2 fold change” value was 1.25.
On to RRIRCRPPRLPRPRPRPIPYPRP, for which the “shrunken log2 fold change” value is -0.0796.
On to RRIRTRPPRLPRPRPRPVFMPRP, for which the “shrunken log2 fold change” value was -0.25.
On to RRIRCRPPRLPRPRPRPSHMPRP, for which the “shrunken log2 fold change” value is -0.838.
As to RRIRDRPPRLPRPRPRPMTAPRP, the “shrunken log2 fold change” value is -0.0214.
The same measure for RRIRPRPPRLPRPRPRPRNEPRP: 0.139; for RRIRNRPPRLPRPRPRPQSFPRP: -0.0341.
Turning to RRIRTRPPRLPRPRPRPNDEPRP, the “shrunken log2 fold change” value was -0.0966.
To RRIRARPPRLPRPRPRPWGIPRP belongs -0.0125.
Turning to RRIRARPPRLPRPRPRPPMRPRP, the “shrunken log2 fold change” value was found to be 1.26.
The same measure for RRIRERPPRLPRPRPRPTESPRP: 5.08; for RRIRLRPPRLPRPRPRPYWIPRP: -0.00778.
To RRIRTRPPRLPRPRPRPFQVPRP belongs -0.0305; to RRIRHRPPRLPRPRPRPQTIPRP, -0.793; to RRIRARPPRLPRPRPRPEWQPRP, 0.105.
The same measure for RRIRQRPPRLPRPRPRPPLTPRP: 0.0676.
With RRIRLRPPRLPRPRPRPAEQPRP, the “shrunken log2 fold change” value amounted to 0.0174.
The same measure for RRIRGRPPRLPRPRPRPSVYPRP: 0.286; for RRIRRRPPRLPRPRPRPSGRPRP: 0.0215.
Consider RRIRVRPPRLPRPRPRPYMKPRP, for which the “shrunken log2 fold change” value was -1.04.
As to RRIRMRPPRLPRPRPRPGKYPRP, the “shrunken log2 fold change” value is 0.0424.
On to RRIRARPPRLPRPRPRPTSLPRP, for which the “shrunken log2 fold change” value amounted to 0.225.
To RRIRRRPPRLPRPRPRPLRDPRP belongs 1.05.
For the sequence RRIRYRPPRLPRPRPRPHDMPRP, the “shrunken log2 fold change” value is -0.00277.
